# B1: Mothers against decapentaplegic homolog 4 (Homo sapiens), Q13485 (parent)
# chain: MDNMSITNTPTSNDACLSIVHSLMCHRQGGESETFAKRAIESLVKKLKEKKDELDSLITAITTNGAHPSKCVTIQRTLDGRLQVAGRKGFPHVIYARLWRWPDLHKNELKHVKYCQYAFDLKCDSVCVNPYHYERVVSPGIDLSGLTLQSNAPSSMMVKDEYVHDFEGQPSLSTEGHSIQTIQHPPSNRASTETYSTPALLAPSESNATSTANFPNIPVASTSQPASILGGSHSEGLLQIASGPQPGQQQNGFTGQPATYHHNSTTTWTGSRTAPYTPNLPHHQNGHLQHHPPMPPHPGHYWPVHNELAFQPPISNHPAPEYWCSIAYFEMDVQVGETFKVPSSCPIVTVDGYVDPSGGDRFCLGQLSNVHRTEAIERARLHIGKGVQLECKGEGDVWVRCLSDHAVFVQSYYLDREAGRAPGDAVHKIYPSAYIKVFDLRQCHRQMQQQAATAQAAAAAQAAAVAGNIPGPGSVGGIAPAISLSAAAGIGVDDLRRLCILRMSFVKGWGPDYPRQSIKETPCWIEIHLHRALQLLDEVLHTMPIADPQPLD
# partner: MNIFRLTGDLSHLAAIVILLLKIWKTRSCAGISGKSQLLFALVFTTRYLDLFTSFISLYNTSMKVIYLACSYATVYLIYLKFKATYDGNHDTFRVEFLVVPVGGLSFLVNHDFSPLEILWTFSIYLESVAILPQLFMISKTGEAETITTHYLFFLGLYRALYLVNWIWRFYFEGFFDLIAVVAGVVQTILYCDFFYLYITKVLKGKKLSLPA
# B2: Mothers against decapentaplegic homolog 4 (Homo sapiens), Q13485 (parent)
# chain: B1 chain
# partner: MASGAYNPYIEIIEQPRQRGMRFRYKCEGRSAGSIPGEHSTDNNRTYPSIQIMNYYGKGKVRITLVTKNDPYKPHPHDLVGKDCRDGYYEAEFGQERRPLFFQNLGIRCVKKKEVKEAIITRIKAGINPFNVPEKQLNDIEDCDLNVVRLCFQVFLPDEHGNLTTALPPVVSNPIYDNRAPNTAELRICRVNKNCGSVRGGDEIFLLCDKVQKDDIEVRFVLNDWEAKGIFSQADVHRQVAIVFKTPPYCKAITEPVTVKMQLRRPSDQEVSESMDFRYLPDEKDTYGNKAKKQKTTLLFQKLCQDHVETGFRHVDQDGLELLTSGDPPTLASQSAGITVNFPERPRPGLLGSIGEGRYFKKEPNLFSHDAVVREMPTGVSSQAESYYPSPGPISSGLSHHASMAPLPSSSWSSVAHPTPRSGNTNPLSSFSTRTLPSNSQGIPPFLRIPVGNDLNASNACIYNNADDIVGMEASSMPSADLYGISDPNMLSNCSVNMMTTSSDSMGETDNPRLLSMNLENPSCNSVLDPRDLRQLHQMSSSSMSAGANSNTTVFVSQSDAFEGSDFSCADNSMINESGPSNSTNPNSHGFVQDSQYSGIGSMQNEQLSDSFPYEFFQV
# B3: Mothers against decapentaplegic homolog 4 (Homo sapiens), Q13485 (parent)
# chain: B1 chain
# partner: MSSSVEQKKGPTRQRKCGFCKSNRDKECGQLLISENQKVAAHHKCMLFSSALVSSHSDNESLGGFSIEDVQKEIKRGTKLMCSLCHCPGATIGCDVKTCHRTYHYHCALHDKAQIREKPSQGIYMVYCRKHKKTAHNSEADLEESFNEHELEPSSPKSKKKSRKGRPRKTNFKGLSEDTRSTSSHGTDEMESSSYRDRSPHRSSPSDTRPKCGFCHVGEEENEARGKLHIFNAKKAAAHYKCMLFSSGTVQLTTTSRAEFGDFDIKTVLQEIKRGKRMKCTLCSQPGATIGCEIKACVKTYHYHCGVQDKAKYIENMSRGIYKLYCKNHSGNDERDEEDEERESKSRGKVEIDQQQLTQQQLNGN
# B4: Mothers against decapentaplegic homolog 4 (Homo sapiens), Q13485 (parent)
# chain: B1 chain
# partner: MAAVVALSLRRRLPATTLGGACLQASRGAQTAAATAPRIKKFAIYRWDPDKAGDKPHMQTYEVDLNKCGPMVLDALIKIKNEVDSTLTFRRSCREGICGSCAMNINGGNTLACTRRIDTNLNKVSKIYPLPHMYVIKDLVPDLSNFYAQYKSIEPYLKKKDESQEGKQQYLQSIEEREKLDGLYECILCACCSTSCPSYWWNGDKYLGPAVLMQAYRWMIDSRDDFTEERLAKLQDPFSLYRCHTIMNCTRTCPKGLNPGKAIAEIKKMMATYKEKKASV
# B5: Mothers against decapentaplegic homolog 4 (Homo sapiens), Q13485 (parent)
# chain: B1 chain
# partner: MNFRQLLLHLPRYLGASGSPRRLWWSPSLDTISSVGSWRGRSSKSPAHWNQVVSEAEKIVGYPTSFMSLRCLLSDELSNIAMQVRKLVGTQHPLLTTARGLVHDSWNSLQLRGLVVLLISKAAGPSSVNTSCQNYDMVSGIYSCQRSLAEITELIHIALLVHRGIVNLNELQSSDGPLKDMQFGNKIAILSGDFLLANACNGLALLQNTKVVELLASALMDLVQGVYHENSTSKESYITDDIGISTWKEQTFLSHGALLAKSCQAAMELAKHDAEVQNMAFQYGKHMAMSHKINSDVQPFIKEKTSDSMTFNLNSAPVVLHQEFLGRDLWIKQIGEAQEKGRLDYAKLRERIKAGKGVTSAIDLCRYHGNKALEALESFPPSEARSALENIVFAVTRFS
# B6: Speckle-type POZ protein (Homo sapiens), O43791 (parent)
# chain: MSRVPSPPPPAEMSSGPVAESWCYTQIKVVKFSYMWTINNFSFCREEMGEVIKSSTFSSGANDKLKWCLRVNPKGLDEESKDYLSLYLLLVSCPKSEVRAKFKFSILNAKGEETKAMESQRAYRFVQGKDWGFKKFIRRDFLLDEANGLLPDDKLTLFCEVSVVQDSVNISGQNTMNMVKVPECRLADELGGLWENSRFTDCCLCVAGQEFQAHKAILAARSPVFSAMFEHEMEESKKNRVEINDVEPEVFKEMMCFIYTGKAPNLDKMADDLLAAADKYALERLKVMCEDALCSNLSVENAAEILILADLHSADQLKTQAVDFINYHASDVLETSGWKSMVVSHPHLVAEAYRSLASAQCPFLGPPRKRLKQS
# partner: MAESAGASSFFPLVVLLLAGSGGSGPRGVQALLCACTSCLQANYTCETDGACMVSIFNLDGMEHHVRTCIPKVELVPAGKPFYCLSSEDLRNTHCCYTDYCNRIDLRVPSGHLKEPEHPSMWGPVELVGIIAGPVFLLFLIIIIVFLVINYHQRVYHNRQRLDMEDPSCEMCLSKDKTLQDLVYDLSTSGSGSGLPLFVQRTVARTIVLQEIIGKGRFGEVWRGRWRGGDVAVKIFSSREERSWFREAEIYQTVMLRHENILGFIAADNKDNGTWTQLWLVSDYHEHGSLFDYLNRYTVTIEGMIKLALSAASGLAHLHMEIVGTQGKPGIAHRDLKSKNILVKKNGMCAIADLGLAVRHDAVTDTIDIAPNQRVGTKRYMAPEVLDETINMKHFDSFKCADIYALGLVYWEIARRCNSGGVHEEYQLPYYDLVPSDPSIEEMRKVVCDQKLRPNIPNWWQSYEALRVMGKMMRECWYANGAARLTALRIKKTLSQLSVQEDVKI
# Variants of: B1
# Conditions: with erd22_human KDELR2, P33947
row,Variant,effect of a mutation on the interaction
1,R361C,with no effect

# Variants of: B1
# Conditions: with erd22_human KDELR2, P33947
# Remark: another data set of the same source
row,Variant,effect of a mutation on the interaction
1,R361H,with no effect

# Variants of: B1
# Conditions: with erd22_human KDELR2, P33947
# Remark: another data set of the same source
row,Variant,effect of a mutation on the interaction
1,G386D,with no effect

# Variants of: B2
# Conditions: with rel_human REL
row,Variant,effect of a mutation on the interaction
1,G386D,with no effect

# Variants of: B3
# Conditions: with phf6_human PHF6, Q8IWS0
row,Variant,effect of a mutation on the interaction
1,R361C,with no effect

# Variants of: B4
# Conditions: with sdhb_human SDHB
row,Variant,effect of a mutation on the interaction
1,G386D,with no effect

# Variants of: B4
# Conditions: with sdhb_human SDHB
# Remark: another data set of the same source
row,Variant,effect of a mutation on the interaction
1,G386D,increasing interaction strength

# Variants of: B4
# Conditions: with sdhb_human SDHB
# Remark: another data set of the same source
row,Variant,effect of a mutation on the interaction
1,R361C,with no effect

# Variants of: B5
# Conditions: with dlp1_human PDSS2, Q86YH6
row,Variant,effect of a mutation on the interaction
1,R361H,with no effect

# Variants of: B5
# Conditions: with dlp1_human PDSS2, Q86YH6
# Remark: another data set of the same source
row,Variant,effect of a mutation on the interaction
1,G386D,with no effect

# Variants of: B6
# Conditions: with acv1b_human ACVR1B
row,Variant,effect of a mutation on the interaction
1,MSRVPSPPPPAEMSSGPVAESWCYTQIKVVKFSYMWTINNFSFCREEMGEVIKSSTFSSGANDKLKWCLRVNPKGLDEESKDYLSLYLLLVSCPKSEVRAKFKFSILNAKGEETKAMESQRAYRFVQGKDWGLKKFIRRDFLLDEANGLLPDDKLTLFCEVSVVQDSVNISGQNTMNMVKVPECRLADELGGLWENSRFTDCCLCVAGQEFQAHKAILAARSPVFSAMFEHEMEESKKNRVEINDVEPEVFKEMMCFIYTGKAPNLDKMADDLLAAADKYALERLKVMCEDALCSNLSVENAAEILILADLHSADQLKTQAVDFINYHASDVLETSGWKSMVVSHPHLVAEAYRSLASAQCPFLGPPRKRLKQS [F133L],with no effect

# — IntAct's records for PubMed 35512704
